{"source": "paper PMC3771917", "about": "“The Crystal Structure of the Orphan Nuclear Receptor NR2E3/PNR Ligand Binding Domain Reveals a Dimeric Auto-Repressed Conformation” (PLoS ONE, 2013)", "proteins": {"B1": {"name": "MBP-NR2E3 LBD-His6 fusion protein (MBP–NAAAEF linker–NR2E3(217-410)-His6, C275S) (domain or fragment, human, UniProt Q9Y5X4 217-410, looked up)", "chain": "LDSIHETSARLLFMAVKWAKNLPVFSSLPFRDQVILLEEAWSELFLLGAIQWSLPLDSSPLLAPPEASAAGGAQGRLTLASMETRVLQETISRFRALAVDPTEFACMKALVLFKPETRGLKDPEHVEALQDQSQVMLSQHSKAHHPSQPVRFGKLLLLLPSLRFITAERIELLFFRKTIGNTPMEKLLCDMFKN", "notes": "Both tags are non-cleavable; Expressed from pETDuet1; also called MBP-NR2E3 fusion protein; apo NR2E3 LBD; source: E. coli BL21 (DE3), purified (Ni-chelating Hi-Trap, Superdex 200 gel filtration); not shown: MBP (joined by the linker NAAAEF), N-terminal, kept; His6, C-terminal, kept"}}, "target": "the molecule itself", "test": "SEC; MBP-NR2E3 LBD in solution, compared with Bio-rad Protein Standard", "data": [{"protein": "B1", "values": [{"measurement": "stoichiometry N", "result": 2}]}]}
